Assay results: FireProtDB (doi:10.1021/bi9928694)

B1: Lysozyme C, P61626 (parent)
chain: MKALIVLGLVLLSVTVQGKVFERCELARTLKRLGMDGYRGISLANWMCLAKWESGYNTRATNYNAGDRSTDYGIFQINSRYWCNDGKTPGAVNACHLSCSALLQDNIADAVACAKRVVRDPQGIRAWVAWRNRCQNRDVRQYVQGCGV

Variants of: B1
Details: Homo sapiens, reversible: yes, structure 1LZ1, whole UniProt chain shown
[1] = pH 2.7, 64.9 °C, Thermal, DSC, glycine-HCl 0.05 M
[2] = pH 2.7, Thermal, DSC, glycine-HCl 0.05 M
[3] = pH 4, 10 °C, GdnHCl, CD, glycine-HCl 40 mM

Q: What does the source list for H96G?
A: ddG of mutation (higher = less stable) [1]: 0.12 kcal/mol; heat capacity change of unfolding [1]: 1.58 kcal/mol/K; unfolding enthalpy (calorimetric) [1]: 109 kcal/mol; Tm [2]: 64.9 °C; heat capacity change of unfolding [2]: 1.58 kcal/mol/K; unfolding enthalpy (calorimetric) [2]: 109 kcal/mol; ddG of mutation (higher = less stable) [3]: 0.53 kcal/mol; denaturant midpoint (higher = more stable) [3]: 3.81 M; unfolding free energy [3]: 13.8 kcal/mol

Q: For Q76G, which “change of melting temperature, mutant - wild type (higher = more stable)” value [2] is on record?
A: Its value is 5.7 °C.

Q: And the “heat capacity change of unfolding” value [2]?
A: The value was 1.34 kcal/mol/K.

Q: What about the “unfolding enthalpy (calorimetric)” value [2] of the same variant?
A: The value was 109 kcal/mol.

Q: What about the “ddG of mutation (higher = less stable)” value [3] of the same variant?
A: The value was -2.06 kcal/mol.

Q: What about the “denaturant midpoint (higher = more stable)” value [3] of the same variant?
A: The value was 4.26 M.

Q: And the unfolding free energy [3]?
A: The unfolding free energy was 16.4 kcal/mol.

Q: With R68G as the variant, how does the “ddG of mutation (higher = less stable)” value [1] read?
A: The value was -0.26 kcal/mol.

Q: What about the “heat capacity change of unfolding” value [1] of the same variant?
A: Its value is 1.46 kcal/mol/K.

Q: What about the “unfolding enthalpy (calorimetric)” value [1] of the same variant?
A: The value was 100 kcal/mol.

Q: And the Tm [2]?
A: The Tm was 65.8 °C.

Q: What about the “change of melting temperature, mutant - wild type (higher = more stable)” value [2] of the same variant?
A: The value was 0.9 °C.

Q: For G55Q, which “ddG of mutation (higher = less stable)” value [1] is on record?
A: The value was 0.26 kcal/mol.

Q: And the “heat capacity change of unfolding” value [1]?
A: Its value is 1.15 kcal/mol/K.

Q: What about the “unfolding enthalpy (calorimetric)” value [1] of the same variant?
A: Its value is 108 kcal/mol.

Q: And the Tm [2]?
A: Its Tm is 64.9 °C.

Q: And the “heat capacity change of unfolding” value [2]?
A: Its value is 1.15 kcal/mol/K.

Q: And the “unfolding enthalpy (calorimetric)” value [2]?
A: Its value is 108 kcal/mol.

Q: What about the “ddG of mutation (higher = less stable)” value [3] of the same variant?
A: Its value is 0.86 kcal/mol.

Q: What about the “denaturant midpoint (higher = more stable)” value [3] of the same variant?
A: The value was 3.79 M.

Q: What about the unfolding free energy [3] of the same variant?
A: Its unfolding free energy is 13.5 kcal/mol.
